Results as given in publication PMC10786315 (Proceedings of the National Academy of Sciences of the …, 2024).

Target: the molecule itself
Test: SEC

B1: LctR (LctP Regulator, CJ1608) (natural protein, C. jejuni, UniProt Q0P820 1-295, looked up)
chain: MKVLIIENEIYLAQSISIKLSDAGYSCEIINSFDEYNGEKYYDIILLSTNTNNFLKAVGQFKHSIIILLISYISTDTVSNPLKLGASDYIQKPFMIEELIRKIKHYQDFRKLSILNKAYQSYIKSRLETIKIPEYNYKKLKLPLILKSNKQSSADAFVFNYANECDITLSFIDLTSTNSVEKVMKLPTENNLLFLSNFQALKAAEKEKLLDFIQNKNVILHTNSNTDDLKINCINLNDNEKNINSNEILTIDEYVKYVIINYQNIFPDTDLSKKLGISRKSLWEKRKKYEISKKK
**Q.** For B1, which “stoichiometry N” value is on record?
**A.** Its value is 2.
